The source of these data is US20080089837A1.

The target of this test is PDGFR-alpha (platelet derived growth factor receptor-alpha) on human osteosarcoma MG-63 cells (human) (UniProt P16234). As to the kind of experiment: FACS titration on MG-63 cells, nonlinear fit of geometric mean fluorescence; goat anti-mouse detection; 95% CI ±99 pM.
PDGFR-alpha (platelet derived growth factor receptor-alpha) on human osteosarcoma MG-63 cells (human), sequence (P16234 24-1089): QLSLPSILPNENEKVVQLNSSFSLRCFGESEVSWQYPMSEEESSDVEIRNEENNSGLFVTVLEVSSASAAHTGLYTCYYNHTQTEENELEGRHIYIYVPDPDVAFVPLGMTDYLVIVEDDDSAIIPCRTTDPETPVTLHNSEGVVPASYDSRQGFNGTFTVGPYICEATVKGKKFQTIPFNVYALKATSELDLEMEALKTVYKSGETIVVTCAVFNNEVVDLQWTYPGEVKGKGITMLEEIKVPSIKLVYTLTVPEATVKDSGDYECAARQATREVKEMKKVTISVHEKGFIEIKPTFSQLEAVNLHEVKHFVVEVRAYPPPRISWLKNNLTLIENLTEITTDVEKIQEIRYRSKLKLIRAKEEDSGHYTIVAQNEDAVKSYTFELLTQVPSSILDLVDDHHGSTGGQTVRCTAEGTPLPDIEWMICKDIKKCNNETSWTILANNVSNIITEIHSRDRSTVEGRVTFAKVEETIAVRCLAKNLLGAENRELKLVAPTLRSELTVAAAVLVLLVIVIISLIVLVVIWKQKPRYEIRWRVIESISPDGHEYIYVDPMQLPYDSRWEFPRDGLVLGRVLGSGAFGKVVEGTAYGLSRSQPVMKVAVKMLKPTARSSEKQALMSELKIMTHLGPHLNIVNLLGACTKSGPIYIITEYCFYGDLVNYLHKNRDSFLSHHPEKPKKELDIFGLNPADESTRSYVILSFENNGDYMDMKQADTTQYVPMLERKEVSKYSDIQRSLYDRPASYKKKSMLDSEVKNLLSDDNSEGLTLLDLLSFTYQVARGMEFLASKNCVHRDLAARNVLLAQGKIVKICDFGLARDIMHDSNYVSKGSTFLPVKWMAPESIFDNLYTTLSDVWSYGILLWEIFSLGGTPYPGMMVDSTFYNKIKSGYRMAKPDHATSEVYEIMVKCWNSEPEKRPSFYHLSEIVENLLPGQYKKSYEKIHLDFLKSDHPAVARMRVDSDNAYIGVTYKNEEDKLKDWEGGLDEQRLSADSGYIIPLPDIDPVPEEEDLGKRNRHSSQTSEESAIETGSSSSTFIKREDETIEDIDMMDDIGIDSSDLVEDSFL

As for CD140a control antibody, the dissociation constant Kd came out at 0.146 nM.

For orientation: Kd means the equilibrium constant for the complex coming apart. A high value points to a looser complex.
